Reference: patent publication US20250302982A1 (Genmab, published 2025)

How the values were obtained:
Tissue Factor (TF) [1] = biological target: T1, Tissue Factor (TF) (human, UniProt P13726 33-295); assay: cell-based or functional assay
Tissue Factor (TF) [2] = biological target: T1, Tissue Factor (TF); assay: flow cytometry on HNSCC cell lines, 2 µg/ml tisotumab, PE-conjugated goat (Fab')2 anti-human IgG secondary

binding result (Tissue Factor (TF) [2]) | Binder | IC50 of cell killing (percent viable cells, Cell Titer-Blue, day 5); HNSCC cell lines with intermediate and high TF expression (Tissue Factor (TF) [1]) [ng/mL] | IC50 of cell killing (percent viable cells, Cell Titer-Blue, day 5); primary keratinocytes and VU-SCC-OE (low TF expression) (Tissue Factor (TF) [1]) [ng/mL]
– | tisotumab vedotin (antibody, IgG1, V domains shown, MC-vc-PAB-MMAE (vcMMAE) attached to sulphydryl residues of the antibody; positions not given) VH: EVQLLESGGGLVQPGGSLRLSCAASGFTFSNYAMSWVRQAPGKGLEWVSSISGSGDYTYYTDSVKGRFTISRDNSKNTLYLQMNSLRAEDTAVYYCARSPWGYYLDSWGQGTLVTVSS VL: DIQMTQSPPSLSASAGDRVTITCRASQGISSRLAWYQQKPEKAPKSLIYAASSLQSGVPSRFSGSGSGTDFTLTISSLQPEDFATYYCQQYNSYPYTFGQGTKLEIK | 2.5 to 7 | > 25
binds | tisotumab (antibody, IgG1, V domains shown, Tested as IgG1 (IgG1-1015-011, Genmab); also called antibody 011; IgG1-1015-011) VH: EVQLLESGGGLVQPGGSLRLSCAASGFTFSNYAMSWVRQAPGKGLEWVSSISGSGDYTYYTDSVKGRFTISRDNSKNTLYLQMNSLRAEDTAVYYCARSPWGYYLDSWGQGTLVTVSS VL: DIQMTQSPPSLSASAGDRVTITCRASQGISSRLAWYQQKPEKAPKSLIYAASSLQSGVPSRFSGSGSGTDFTLTISSLQPEDFATYYCQQYNSYPYTFGQGTKLEIK | – | –
